In the RNAGym collection of RNA variant scans (doi:10.7554/elife.90254):

B1: OR4K15 (parent)
chain: GUUAACGGUCAUAGGCCAUGGAAACUAGGAGCACCAUUUCGCUGCCAGUGAAGAAAUGAACAAAGAAAAUCUGGGCCAGGCAGGCAUCAAAAGAAAUAGUCUUGCGCUCAACCAGAAAGUCUGUAAUCAUUUUAAGGGUA

Variants of: B1
Assay: self-cleavage, relative activity (ratio to wild type); higher = more cleavage; in vitro, sequencing; the parent is a self-cleaving ribozyme

Variant | self-cleavage
GUUAACGGUCAUAGGCCAUGGAAACUAGGAGCACCAUUUCGCUGCCGGUGAAGAAAUGAACAAAGAAAAUCUGGGCCAGGCAGGCAUCAAAAGAAAUAGUCUUGCGCUCAACCAUAAAGUCUGUAAUCAUUUUAAGGGUA | 0.09
GUUAACGGUCAUAGGCCAUGGAAACUAGGGGCACCAUUUCGCUGCCAGUGAAGAAAUGAACAAAGAAAAUCUGGGCCAGGCAGGCAUCGAAAGAAAUAGUCUUGCGCUCAACCAGAAAGUCUGUAAUCAUUUUAAGGGUA | 0.71
GUUAACGGUCAUAGGCCAUGGAAACUAGGAGCACCAUUUCGCUGCCAGUGAAGAAAUGAACAAAGAAAAUCUGGGCCAGGCAGGCAUCAAAAGAAAGAGUCUUGCGCCCAACCAGAAAGUCUGUAAUCAUUUUAAGGGUA | 0
GUUAACGGUCAUAGGCCAUGGAAACUAGGAGCACCAUUUCGCUGCCAGUGAAGAGAUGAACAAAGAAAAUCUGGGCCAGGCAGGCAUCAAAAGAAAUAGUCUUGCGCUCAACCAGAAAGUCUGUAGUCAUUUUAAGGGUA | 0.33
GUUAACGGUCAUAGACCAUGGAAACUAGGAGCACCAUUUCGCUGCCGGUGAAGAAAUGAACAAAGAAAAUCUGGGCCAGGCAGGCAUCAAAAGAAAUAGUCUUGCGCUCAACCAGAAAGUCUGUAAUCAUUUUAAGGGUA | 1.33
GUUAACGGUCAUAGGCCAUGGUAACUAGGAGCACCAUUUCGCUGCCAGUGAAGAAAUGAGCAAAGAAAAUCUGGGCCAGGCAGGCAUCAAAAGAAAUAGUCUUGCGCUCAACCAGAAAGUCUGUAAUCAUUUUAAGGGUA | 1.29
GUUAACGGUCAUAGGCCAUGGAAACUAGGAGCACCAUUUCGCUGCCAGUGAAGAAAUGAACAAAGAAAAUCUGGGCCUGGCAGGCAUCAAAAGAAAUAGUCUUGCGCUCAACCAGAUAGUCUGUAAUCAUUUUAAGGGUA | 0.3
GUUAACGGUCAUAGGCCAUGGAAACUAAGAGCACCAUUUCGCUGCCAGUGAAGAAGUGAACAAAGAAAAUCUGGGCCAGGCAGGCAUCAAAAGAAAUAGUCUUGCGCUCAACCAGAAAGUCUGUAAUCAUUUUAAGGGUA | 1.49
GUUAACGGUCAUAGGCCAUGGAAACUAGGAGCACCAUUUCGCUGCCAGUGAAGAAAUGAACAAGGAAAAACUGGGCCAGGCAGGCAUCAAAAGAAAUAGUCUUGCGCUCAACCAGAAAGUCUGUAAUCAUUUUAAGGGUA | 0.97
GUUAACGGUCAUAGGCCAUGGAACCUAGGAGCACCAUUUCGCUGCCAGUGAAGAAAUGAACAAAGAAAAUCUGGGCCAGGCAGGCAUCAAAAGAAAUAGUCUUGCGCUCAACCAGAAAGUCUGUUAUCAUUUUAAGGGUA | 2.07
GAUAACGGUCAUAGGCCAUGGAAACUAGGAGCACCAUUUCGCUGCCAGUGAAGAAAUGAACAAAAAAAAUCUGGGCCAGGCAGGCAUCAAAAGAAAUAGUCUUGCGCUCAACCAGAAAGUCUGUAAUCAUUUUAAGGGUA | 0.89
GUUAACGGUCAUAGGCCCUGGAAACUAGGAGCACCAUUUCGCUGCCAGUGAAGAAAUGAACAAAGAAAAUCUGGGCCAGGCAGGCAUCAAAAGAAAUAGUCUUGCGCUCAACUAGAAAGUCUGUAAUCAUUUUAAGGGUA | 0.12
GUUAACGGACAUAGGCCAUGGAAACUAGGGGCACCAUUUCGCUGCCAGUGAAGAAAUGAACAAAGAAAAUCUGGGCCAGGCAGGCAUCAAAAGAAAUAGUCUUGCGCUCAACCAGAAAGUCUGUAAUCAUUUUAAGGGUA | 0.98
GUUAACGGUCAUAGGCCAUGGAAACUAGGAGCACCAUUUCGCUGCCAGUGAAGAAAUGAACAAAGAAAAUCUGGGCCGGGCAGGCAUCAAAAGAAAUAGUCUUGCGCUCAACCAGAAAGUCUGUAAUCAUUUUAAGGGAA | 0.23
GUUAACGGUCAUAGGCCAUGGAACCUAGGAGCACCAUUUCGCUGCCAGUGAAGAAAUGAACAGAGAAAAUCUGGGCCAGGCAGGCAUCAAAAGAAAUAGUCUUGCGCUCAACCAGAAAGUCUGUAAUCAUUUUAAGGGUA | 1.94
GUUAAAGGUCAUAGGCCAUGGAAACUAGGAGCACCAUUUCGCUGCCAGUGAAGAAAUGAACAAAGAAAAUCUGGGCCAGGCAGGCAUCAAAAGAAAUAGUCUUGCGCUCAACCAGAAAGUCCGUAAUCAUUUUAAGGGUA | 0.29
GUUAACGGUCAUAGGCCAUGGAAACUAGGAGCACCACUUCGCUGCCAGUGAAGAAAUGAACAAAGAAAAUCUGGGCCAGGCAGGCAUCAAAAGUAAUAGUCUUGCGCUCAACCAGAAAGUCUGUAAUCAUUUUAAGGGUA | 1.67
GUUAACGGUCAUAGGCCAUGGAAACUAGGAGCACCACUUCGCUGCCAGUGAAGAAAUGAACAAAGAAAAUCUGGGCCAGGCAGGCAUCAAAAUAAAUAGUCUUGCGCUCAACCAGAAAGUCUGUAAUCAUUUUAAGGGUA | 1.07
GUUAACGGUCAUAGGCCAGGGAAACUAGGAGCACCAUUUCGCUGCCAGUGAAGAAAUGAACAAAGAAAAUCUGGGCCAGGCAGGCAUCAAAAGAAAUAGUCUUGCGCUCAACCAGAAAGUCUGUAAUCAUUUUAAGGGUA | 1.18
GUUAACGGUCAUAGGCCAUGGAAACUAGGAGCACCAUUUCGCUGCCAGUGAAGAAAUGAACAAAGAAAGUCUGGGCCAGGCAGGCAUCAGAAGAAAUAGUCUUGCGCUCAACCAGAAAGUCUGUAAUCAUUUUAAGGGUA | 1.43
GUUAGCGGUCAUAGGCCAUGGAAUCUAGGAGCACCAUUUCGCUGCCAGUGAAGAAAUGAACAAAGAAAAUCUGGGCCAGGCAGGCAUCAAAAGAAAUAGUCUUGCGCUCAACCAGAAAGUCUGUAAUCAUUUUAAGGGUA | 0.83

Variant | self-cleavage
GUUAACGGUCAUAGGCCAUGGAAGCUAGGAGCACCAUUUCGCUGCCAGUGAAGAAAUGAACAAAGAAAAUCUGGGCCAGGCAGGCAUCAAAAGAAAUAGUCUUGCGCUCAACCAGAAAGUCUGUAAUCAUUUUAAGGGCA | 0.99
GUUAACGGUCGUAGGCCAUGGAAACUAGGAGCACCAUUUCACUGCCAGUGAAGAAAUGAACAAAGAAAAUCUGGGCCAGGCAGGCAUCAAAAGAAAUAGUCUUGCGCUCAACCAGAAAGUCUGUAAUCAUUUUAAGGGUA | 0.82
GUUAACGGUCAUAGGCCAUGGAAACUAGGAGCACCAUUUCGCUGCCAGUGAAGAAAUGAACAAGGAAAAUCUGGGCCAGGCAGGCAUCAAAAGAAAUAGUCUUGCGCUCAACCAGAAAGUCUGUAAUCAUUUCAAGGGUA | 1.5
GUUAACGGUCAUAGGCCAUGGAAACUAGGAGCACCAUUUCGCUGCCAGUGAAGAAAUGAGCAAAGAAAAUCUGGGCUAGGCAGGCAUCAAAAGAAAUAGUCUUGCGCUCAACCAGAAAGUCUGUAAUCAUUUUAAGGGUA | 2.13
GUUAACGGUCAUAGGCCAUGGAAACUAGGAGCACCAUUUCGCUGCCAGUGAAGAAAUGAACAAAGAAAAUCUGGGCCAGGCAGGCAUCAAAAGAGAUAGUCUUGCGCUCAACCAGAAAGUCUGAAAUCAUUUUAAGGGUA | 0.8
GUUAACGGUCAUAGGCCAUGGAAUCUAGGAGCACCAUUUCGCUGCCAGUGAAGAAAUGAACAAAGAAAAUCUGGGCCAGGCGGGCAUCAAAAGAAAUAGUCUUGCGCUCAACCAGAAAGUCUGUAAUCAUUUUAAGGGUA | 0.41
GUUAACGGUCAUAGGCCAUGGAAACUAGGAGCACCAUUUCGCUGCCAGUGAAGAAACGAACAAAGAAAACCUGGGCCAGGCAGGCAUCAAAAGAAAUAGUCUUGCGCUCAACCAGAAAGUCUGUAAUCAUUUUAAGGGUA | 0.47
GUUAACGGUCAUAGGCCAUGGAAACUAGGAGCACCAUUUCGCUGCCAGUGAAGAAAUGAACGAAGAAAAUCUGGGCCAGGCAGGCAUCAAAAGAAAUUGUCUUGCGCUCAACCAGAAAGUCUGUAAUCAUUUUAAGGGUA | 1.39
GUUAACGGUCAUAGGCCAUGGAAACUAGGAGCACCAUUUCGCUGCCAGUGAAGAAAUGAACAAAGAAAGUCUGGGCCAGGCAGGCACCAAAAGAAAUAGUCUUGCGCUCAACCAGAAAGUCUGUAAUCAUUUUAAGGGUA | 1.66
GUUAACGGUCAUAGGCCAUGGAAGCUAGGAGCACCAUUUCGCUGCCAGCGAAGAAAUGAACAAAGAAAAUCUGGGCCAGGCAGGCAUCAAAAGAAAUAGUCUUGCGCUCAACCAGAAAGUCUGUAAUCAUUUUAAGGGUA | 1.37
GUUAACGGUCAUAGGCCAUGGAAACUAGGAGCACCAUUUCGCUCCCAGUGAAGAAAUGAACAAAGAAAAUCUGGGCCGGGCAGGCAUCAAAAGAAAUAGUCUUGCGCUCAACCAGAAAGUCUGUAAUCAUUUUAAGGGUA | 0.52
GUUAACGGUCAUAGGCCAUGGAAACUAGGAGCACCAUUUCGCUGCCAGUGAAGAAGUGAACAAAGAAAAUCUGGGCCAGGCAGGCAUCAAAAGAAAUAGUCUUGCGCUCAACCAGAAAGUCUGUAAUCAUUUUAAGGGCA | 0.78
GUUAACGGUCAUAGGCCAUGGAAACUAGGAGCACCAUUUCGCUGCCAGUGAAGGAAUGAACAAAGAAAAUCUGGGCCAGGCAGGCAUCAAAAGAAAUAGUCUUGCGCUCAACCAGAAAGUCUGUAAUCAUUUUAAGGGUG | 2.22
GUUAACGGUCAUAGGCCAUGGAAACUAGGAGCACCAUUUCGCUGCCAGUGAAGAAAUGAACAAAGAAAAUCUGGGCCAGGCAGGCAUCAAAAGAAAUAGUCUUGCGCUCAACCAGAAAGUCAGUAAUCAUUUUAGGGGUA | 2.11
GUUAACGGUCAUAGGCCAUGGAAACUAGGAGCACCAUUUCGCUGCCAGUGAAGAAAUGAACAAAGAAAAUCUGGGCCAGGCUGGCAUCAAAAGAAAUAGUCUUGUGCUCAACCAGAAAGUCUGUAAUCAUUUUAAGGGUA | 0.01
GUUAACGGUCAUAGGCCAUGGAAACUAGGAGCACCAUUUCGCUGCCAGUGAAGAAAUGAACAAAGAAAAUCUGGGCCAGGCAGGCAUCAAGAGAAAUAGUCCUGCGCUCAACCAGAAAGUCUGUAAUCAUUUUAAGGGUA | 1.94
GUUAACGGUCAUAGGCCAUGGAAACUAGGAGCACCUUUUCGCUGCCAGUGAAGAAAUGAACAAAGAAAAUCUGGGCCAGGCAGGCAUCAAAAGAAAUAGUCUUGCGCUCAACCAGAAAGUCUGUAAUCAUUUUAAGGGAA | 2.31
GUUAACGGUCAUAGGCCAUGGAAACUAGGAGCACCAUUUCGCUGCCAGUGAAGAAAUGAACAAAGAAAAUCUGGGCCAGGCAGGCAUCAAAAGAAAUAGUCUUGCGCUCAACCAGAAAGUCAGUUAUCAUUUUAAGGGUA | 2.05
GUUAACGGUCAUAGGCCAUGGAAACUAGGAGCACCAUUUCGCUGCCAGUGAAGAAAUGAACAAAGAAAAUCUGGGCCAGGCAGGCAUCGAAAGAAAUAGUCUUGCGCUCAACCAGAAAGUCUGUAAUCAUAUUAAGGGUA | 0.3
GUUAACGGUCAUAGGCCAUGGAAACUAGGAGCACCAUUUCGCUGCCAGUGAAGAAAUGAACAAAGAAAAUCUGGGCCAGGCAGGCAUCAAAAGAAAUAGUCUUGCGCUCAACCAGAAAGUCUGUUGUCAUUUUAAGGGUA | 1.04
